The data set deals with the molecule itself. The data set is described as follows: SEC. On the technique in general: Size exclusion chromatography separates by hydrodynamic size, large species first.

From PMC3103650 (Chemico-biological interactions, 2011) come the findings set out here.

B1: C-terminal domain of mtFDH (ALDH1L2), residues 413-923 (domain or fragment, human, UniProt Q3SY69 413-923, looked up)
chain: VRKLRGEDQEVELVVDYISKEVNEIMVKMPYQCFINGQFTDADDGKTYDTINPTDGSTICKVSYASLADVDKAVAAAKDAFENGEWGRMNARERGRLMYRLADLLEENQEELATIEALDSGAVYTLALKTHIGMSVQTFRYFAGWCDKIQGSTIPINQARPNRNLTFTKKEPLGVCAIIIPWNYPLMMLAWKSAACLAAGNTLVLKPAQVTPLTALKFAELSVKAGFPKGVINIIPGSGGIAGQRLSEHPDIRKLGFTGSTPIGKQIMKSCAVSNLKKVSLELGGKSPLIIFNDCELDKAVRMGMGAVFFNKGENCIAAGRLFVEESIHDEFVTRVVEEIKKMKIGDPLDRSTDHGPQNHKAHLEKLLQYCETGVKEGATLVYGGRQVQRPGFFMEPTVFTDVEDYMYLAKEESFGPIMVISKFQNGDIDGVLQRANSTEYGLASGVFTRDINKAMYVSEKLEAGTVFINTYNKTDVAAPFGGVKQSGFGKDLGEEALNEYLKTKTVTLEY
In the case of B1, the “stoichiometry N” value was found to be 4.

By stoichiometry N is commonly meant a count of units in the complex or per binding partner.
